Here are results for 3 molecules from PMC3670613 (Structure (London, England : 1993), 2013).

For assay [1], the target named is T1, S. cerevisiae Rpn14 (recombinant) (S. cerevisiae, UniProt P53196 1-417). Nature of the assay: NMR titration.
Assay [2] deals with T1, S. cerevisiae Rpn14 (recombinant). Nature of the assay: AUC.
The target is the same in assay [3]. Nature of the assay: AUC. The source holds these as a separate data set.

Where a chain is given by its changes, count along the chain named. Read-outs that look alike come from different tables or passages of the source.

T1 sequence (P53196 whole entry): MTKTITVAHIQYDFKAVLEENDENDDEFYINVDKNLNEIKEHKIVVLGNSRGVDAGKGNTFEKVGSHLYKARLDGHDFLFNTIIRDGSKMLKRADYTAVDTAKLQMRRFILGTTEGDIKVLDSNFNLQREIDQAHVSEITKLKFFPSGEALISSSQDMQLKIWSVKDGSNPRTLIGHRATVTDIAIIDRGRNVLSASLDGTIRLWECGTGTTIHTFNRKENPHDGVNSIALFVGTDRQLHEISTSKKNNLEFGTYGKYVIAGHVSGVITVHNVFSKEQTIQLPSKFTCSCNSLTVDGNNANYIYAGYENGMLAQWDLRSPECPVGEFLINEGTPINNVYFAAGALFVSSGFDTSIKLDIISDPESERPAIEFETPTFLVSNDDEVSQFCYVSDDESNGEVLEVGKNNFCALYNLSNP

B1: Rpt6-C (P318-N393) (domain or fragment, S. cerevisiae, UniProt Q01939 318-393, looked up)
chain: PPSVAARAEILRIHSRKMNLTRGINLRKVAEKMNGCSGADVKGVCTEAGMYALRERRIHVTQEDFELAVGKVMNKN
Take B1: the binding result in assay [1] was “binds”.

B2: S. cerevisiae Rpt6 C-terminal domain (Rpt6-C), P318-K405 (domain or fragment, UniProt Q01939 318-405, looked up)
chain: PPSVAARAEILRIHSRKMNLTRGINLRKVAEKMNGCSGADVKGVCTEAGMYALRERRIHVTQEDFELAVGKVMNKNQETAISVAKLFK
As a reminder, the Kd is the equilibrium constant for the complex coming apart. By stoichiometry N is commonly meant a count of units in the complex or per binding partner. For the molecule B2, in assay [2], the Kd stood at 0.25 nM and the “stoichiometry N” value amounted to 1.

B3: Rpt6-C G^360,387A (domain or fragment, S. cerevisiae, UniProt Q01939 318-405, looked up)
chain: B2 chain with G43A, G70A
Turning to B3, the Kd in assay [3] worked out at 0.01 nM.
